Here are results for 18 molecules from publication PMC8011926 (Journal of Medicinal Chemistry, 2020).

Sequences and labels used below:
B1: [D-Ala^2]N/OFQ(1–13)-NH2 (peptide)
peptide: F[dA]GFTGARKSARK-NH2
modifications: N-terminus assumed
SMILES: C[C@H](NC(=O)CNC(=O)[C@@H](NC(=O)[C@H](Cc1ccccc1)NC(=O)CNC(=O)[C@@H](C)NC(=O)[C@@H](N)Cc1ccccc1)[C@@H](C)O)C(=O)N[C@@H](CCCNC(=N)N)C(=O)N[C@@H](CCCCN)C(=O)N[C@@H](CO)C(=O)N[C@@H](C)C(=O)N[C@@H](CCCNC(=N)N)C(=O)N[C@@H](CCCCN)C(N)=O

Non-standard residues stand in square brackets, D forms with d. Residues, ends and D or L forms follow the SMILES beside them. No end group written: not given here.

T1 sequence (P35372 whole entry, species assumed): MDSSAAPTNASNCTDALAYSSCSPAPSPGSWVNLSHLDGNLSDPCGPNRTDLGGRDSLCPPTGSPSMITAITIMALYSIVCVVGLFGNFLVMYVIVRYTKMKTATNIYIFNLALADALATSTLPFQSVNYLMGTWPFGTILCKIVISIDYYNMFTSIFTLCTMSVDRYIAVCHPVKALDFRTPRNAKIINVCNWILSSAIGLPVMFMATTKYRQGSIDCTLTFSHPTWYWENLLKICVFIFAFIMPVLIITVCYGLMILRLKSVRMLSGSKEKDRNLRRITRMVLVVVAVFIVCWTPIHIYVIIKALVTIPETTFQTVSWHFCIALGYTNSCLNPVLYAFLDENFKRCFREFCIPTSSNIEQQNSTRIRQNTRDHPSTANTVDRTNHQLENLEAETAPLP

For the first assay, the target named is N/OFQ peptide (NOP) receptor fused to Renilla luciferase (UniProt P41146).
N/OFQ peptide (NOP) receptor fused to Renilla luciferase, sequence (P41146 whole entry, the tested form may be a part): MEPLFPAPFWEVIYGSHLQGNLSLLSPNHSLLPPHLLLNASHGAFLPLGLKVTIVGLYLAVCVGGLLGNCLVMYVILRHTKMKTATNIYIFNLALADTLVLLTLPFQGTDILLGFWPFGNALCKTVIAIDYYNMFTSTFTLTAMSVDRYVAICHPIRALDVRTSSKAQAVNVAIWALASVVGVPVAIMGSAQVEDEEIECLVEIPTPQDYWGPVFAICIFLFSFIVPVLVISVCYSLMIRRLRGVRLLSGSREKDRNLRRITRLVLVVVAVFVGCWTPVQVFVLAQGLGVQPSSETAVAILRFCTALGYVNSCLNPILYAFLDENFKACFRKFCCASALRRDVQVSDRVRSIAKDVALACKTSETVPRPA
Consider FGGFTGARKSARA-NH2 [[Ala^13]N/OFQ(1–13)-NH2], for which the pEC50 for promoting the NOP/G protein interaction (BRET, membranes with NOP-RLuc and Gβ1-RGFP) was 7.91 -log10 M; the pEC50 for promoting the NOP/β-arrestin 2 interaction (BRET, cells with NOP-RLuc and β-arrestin 2-RGFP) was 7.88 -log10 M.
For the molecule FGGATGARKSARK-NH2 [[Ala^4]N/OFQ(1–13)-NH2], the concentration ratio (EC50 of the ligand / EC50 of N/OFQ(1–13)-NH2) for promoting the NOP/G protein interaction (BRET, membranes); concentration–response curve incomplete came to 1000.
For the molecule AGGFTGARKSARK-NH2 [[Ala^1]N/OFQ(1–13)-NH2], the concentration ratio (EC50 of the ligand / EC50 of N/OFQ(1–13)-NH2) for promoting the NOP/G protein interaction (BRET, membranes); concentration–response curve incomplete was 700.
In the case of FGGFTGARKSAAK-NH2 [[Ala^12]N/OFQ(1–13)-NH2], the pEC50 for promoting the NOP/G protein interaction (BRET, membranes with NOP-RLuc and Gβ1-RGFP) was 7.31 -log10 M; the pEC50 for promoting the NOP/β-arrestin 2 interaction (BRET, cells with NOP-RLuc and β-arrestin 2-RGFP) was 6.85 -log10 M.
In the same order, the values of FGAFTGARKSARK-NH2 [[Ala^3]N/OFQ(1–13)-NH2] are 7.88 -log10 M and 7.54 -log10 M.
In the same order, the values of FGGFTGARKAARK-NH2 [[Ala^10]N/OFQ(1–13)-NH2] are 9.25 -log10 M and 8.43 -log10 M.
As to FAGFTGARKSARK-NH2 [[Ala^2]N/OFQ(1–13)-NH2], the pEC50 for promoting the NOP/G protein interaction (BRET, membranes with NOP-RLuc and Gβ1-RGFP) was 6.36 -log10 M.

Another assay has the same target. This is another data set of the same source.
As to [Cha^1]N/OFQ(1–13)-NH2 (peptide), the pEC50 for promoting the NOP/G protein interaction (BRET, membranes with NOP-RLuc and Gβ1-RGFP) was 8.93 -log10 M; the pEC50 for promoting the NOP/β-arrestin 2 interaction (BRET, cells with NOP-RLuc and β-arrestin 2-RGFP) is 8.28 -log10 M.
FGGFVGARKSARK-NH2 [[Val^5]N/OFQ(1–13)-NH2]: the pEC50 for promoting the NOP/G protein interaction (BRET, membranes with NOP-RLuc and Gβ1-RGFP) was 7.94 -log10 M; the pEC50 for promoting the NOP/β-arrestin 2 interaction (BRET, cells with NOP-RLuc and β-arrestin 2-RGFP) was 7.38 -log10 M.
In the same order, the values of B1 are 7.57 -log10 M and 7.16 -log10 M.
Regarding FGGWTGARKSARK-NH2 [[Trp^4]N/OFQ(1–13)-NH2], the pEC50 for promoting the NOP/G protein interaction (BRET, membranes with NOP-RLuc and Gβ1-RGFP) was 7.63 -log10 M; the pEC50 for promoting the NOP/β-arrestin 2 interaction (BRET, cells with NOP-RLuc and β-arrestin 2-RGFP) is 7.17 -log10 M.
For the molecule FGGFNGARKSARK-NH2 [[Asn^5]N/OFQ(1–13)-NH2], the pEC50 for promoting the NOP/G protein interaction (BRET, membranes with NOP-RLuc and Gβ1-RGFP) was 8.03 -log10 M; the pEC50 for promoting the NOP/β-arrestin 2 interaction (BRET, cells with NOP-RLuc and β-arrestin 2-RGFP) was 7.56 -log10 M.

For the next assay the target is unchanged. The source holds these as a separate data set.
Take [AC3C^7]N/OFQ-NH2 (peptide): the pEC50 for promoting the NOP/G protein interaction (BRET, membranes with NOP-RLuc and Gβ1-RGFP) was 7.67 -log10 M; the pEC50 for promoting the NOP/β-arrestin 2 interaction (BRET, cells with NOP-RLuc and β-arrestin 2-RGFP) is 7.56 -log10 M.
The matching figures for [Aib^7]N/OFQ-NH2 (peptide): 8.92 -log10 M and 8.4 -log10 M.
The matching figures for [Aib^11]N/OFQ-NH2 (peptide): 8.35 -log10 M and 8.21 -log10 M.
The matching figures for [AC5C^11]N/OFQ-NH2 (peptide): 8.61 -log10 M and 8.22 -log10 M.
For [AC5C^7]N/OFQ-NH2 (peptide), the pEC50 for promoting the NOP/G protein interaction (BRET, membranes with NOP-RLuc and Gβ1-RGFP) was 8.1 -log10 M; the pEC50 for promoting the NOP/β-arrestin 2 interaction (BRET, cells with NOP-RLuc and β-arrestin 2-RGFP) is 8.1 -log10 M.

The next assay concerns the target T1, mu opioid receptor (mu-RLuc/Gβ1-RGFP) (Homo sapiens, UniProt P35372).
T1 construct: expressed in transfected cells; host or cells: SH-SY5Y (enriched plasma membranes)
The class given is biochemical. On the procedure:
For this study, human embryonic kidney (HEK293) cells, permanently co-expressing the different pairs of fusion proteins NOP-RLuc/Gβ1-RGFP and NOP-RLuc/β-arrestin 2-RGFP, and SH-SY5Y cells stably, co-expressing the different pairs of fusion proteins mu-RLuc/Gβ1-RGFP and mu-RLuc/β-arrestin 2-RGFP or delta-RLuc/Gβ1-RGFP and delta-RLuc/β-arrestin 2-RGFP, were used. Cells were prepared and cultured, as described previously.[19],[23] […] The protein concentration in membrane preparations was determined using the QPRO-BCA kit (Cyanagen Srl, Bologna, IT) and the Ensight (PerkinElmer, Waltham, USA) in the spectrophotometer mode.
Luminescence in membranes was recorded in 96-well untreated white opaque microplates, while in whole cells, it was recorded in 96-well sterile poly-D-lysine-coated white opaque microplates (PerkinElmer, Waltham, MA, USA) using the luminometer Victor 2030 (PerkinElmer, Waltham, MA, USA). […] Coelenterazine at a final concentration of 5 μM was injected 15 min prior to reading the cell plate. Different concentrations of ligands in 20 μL of PBS–BSA 0.01% were added and incubated 5 min before reading luminescence. […] The BRET ratio was measured 15 min after agonist injection. […]
The pharmacological terminology adopted in this paper is consistent with IUPHAR recommendations.[68] All data are expressed as the mean ± sem of five independent experiments made in duplicate. […]
Regarding `CSCC[C@H](NC(=O)[C@H](CC(C)C)NC(=O)[C@H](Cc1c[nH]cn1)NC(=O)[C@H](Cc1ccccc1)NC(=O)[C@@H](CCSC)NC(=O)[C@@H](N)Cc1ccc(O)cc1)C(=O)N[C@@H](CC(=O)O)C(N)=O` [Deltorphin A] (H-Y[dM]FHLMD-NH2), the “mu/G protein pEC50 (CL95%)” value is given as “crc incomplete”.
